Laboratory results: paper doi:10.1101/2021.07.23.453469 (bioRxiv, 2021)

Molecular target: T1, outer-capsid protein σ3 on T3SA- virions (reovirus strain T1L, UniProt P07939 1-365)
T1 sequence (looked up): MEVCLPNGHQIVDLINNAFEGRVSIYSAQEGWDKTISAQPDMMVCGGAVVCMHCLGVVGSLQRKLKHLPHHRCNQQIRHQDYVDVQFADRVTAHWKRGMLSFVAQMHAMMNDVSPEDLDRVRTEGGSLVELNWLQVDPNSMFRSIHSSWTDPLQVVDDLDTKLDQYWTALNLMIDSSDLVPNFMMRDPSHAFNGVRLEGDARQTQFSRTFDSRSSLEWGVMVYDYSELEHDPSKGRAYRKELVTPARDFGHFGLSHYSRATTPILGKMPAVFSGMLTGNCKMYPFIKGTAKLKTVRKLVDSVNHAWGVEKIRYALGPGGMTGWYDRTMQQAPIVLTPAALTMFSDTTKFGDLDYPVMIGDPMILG
Assay: cryo-EM structure

B1: NgR1-His (domain or fragment, human, UniProt Q9BZR6 27-310, looked up)
chain: CPGACVCYNEPKVTTSCPQQGLQAVPVGIPAASQRIFLHGNRISHVPAASFRACRNLTILWLHSNVLARIDAAAFTGLALLEQLDLSDNAQLRSVDPATFHGLGRLHTLHLDRCGLQELGPGLFRGLAALQYLYLQDNALQALPDDTFRDLGNLTHLFLHGNRISSVPERAFRGLHSLDRLLLHQNRVAHVHPHAFRDLGRLMTLYLFANNLSALPTEALAPLRALQYLRLNDNPWVCDCRARPLWAWLQKFRGSSSEVPCSLPQRLAGRDLKRLAANDLQGCA
B1: binds.
